The record followed here is the DeepSol protein solubility set.

This data set in a line: soluble on expression in E. coli; label from the status in PepcDB or PDB records.
Turning to “MGHHHHHHSHDDSSEWGNSFFWNQLLHVPLRQHQVSCCDWLLKIICGVVTIRTVYASHKQAKACLVSRVSCERTGTRFHTRGVNDDGHVSNFVETEQMIYMDDGVSSFVQIRGSVPLFWEQPGLQVGSHHLRLHRGLEANAPAFDRHMVLLKEQYGQQVVVNLLGSRGGEEVLNRAFKKLLWASCHAGDTPMINFDFHQFAKGG”, the “soluble on expression in E. coli” value was “not soluble”.

Take “EHGPVTFVPDTPIESRARLSLPKQLVLRQSIVGAEVGVWTGETIPVRTCFGPLIGQQSHSMEVAEWTDKAVNHIWKIYHNGVLEFCIITTDENECNWMMFVRKARNREEQNLVAYPHDGKIFFCTSQDIPPENELLFYYSRDYAQQIGVPE”: the “soluble on expression in E. coli” value is reported as “soluble”.

Take “MSLRVENLRSSTYRNGPTGLPNRARFSEDLDAVLLQRTADSAATAIAVDLCGSDYFRDMVKALGWDYADGYVALAYKRLISKLPAGTALYRLDTTTFAFMVTTADPLRLSALCSKISKGFVAPLEHQGIPHTAVASIGAVLLETSYGAADTLRSLTTSVDVAREHCLTWSLYEREGHHHHHH”: the “soluble on expression in E. coli” value is “not soluble”.

For “MGSDKIHHHHHHATETEKDQRKFDYFFYEGLNLKNAGKFDAAYDAFNHCLEIDSTAAPVLYELSSFYVQLNRPEKAVEMLKRAVANSKDNFTYKMALASITRNLGMYGEAAEEYEELVRDYPEKEELNYYLADALTQAGEIGKAIEAYDALESVMGMNEAISMQKYKLYVQLEKPEEAFKEIEKLAAKYPMEARYQIVLGDLHLENGEMDKALACYQKANEIDPTDPYYIVSMANYYEAKGDKEAAEQQIRSALVNEKLDVETKVNILSRYILKLQQTKQGTENANHLFQTLLEQHPEDIDLKLMYGGLLMAQGKTEEAKFQFQLVTEMEPGNAGAWQQLLNLALKGEDIPEVIRICTACMELFPESPEYYFYLGIAYYQQQKYQEALNTYYAGLNIIPKENLPLKSDFYGQIGDIYYQMGQLDQAYKAYDEALKYNDKNVVVLNNYSYFLSLEKKDLKKAERMSAQCIKLEPDNATYLDTYAWIFFVQGNYTLAKIYIESALEKDKTKSAELVDHYGDILFMNGDKEKAVEQWKKAKEMGKDSEILNRKIAEQQYIEDENAK”, the “soluble on expression in E. coli” value is recorded as “not soluble”.

With “MGSDKIHHHHHHMKMTDPLYGTFEIEPVLAELIQSPLVSRLAHVHQGGSSYLVNPLWDLSRLDHSIGVMLFIRKFGGSLEEQIAGLLHDVSHTAFSHVVDYALDFEEEDYHEQIFEDFVKTSTIPAILEKYGYSFEGIFDDISKWKILEQEAPELCADRIDYTLQDLYRHRKISLAEVEEFLQALVMVDGRLYLANIALAEWFVAQYYSEVIDYFYDPLNVYSYEILAEAMRIAFQQETITTADLRLTDTELLAKLNANSDAREKIQLLASAHLEENEADFTYHHKKKMRLINPSILVDGRLIPADELSEKVRKMNDWASERSKHGIYIKATKKSKQ”, the “soluble on expression in E. coli” value is “not soluble”.

Take “MSLIVLGLEGTAHTISCGIIDESRILAMESSMYRPKTGGIRPLDAAVHHSEVIDTVISRALEKAKISIHDIDLIGFSMGPGLAPSLRVTATAARTISVLTGKPIIGVNHPLGHIEIGRRVTGAIDPVMLYVSGGNTQVIAHVNGRYRVLGETLDIGIGNMIDKFAREAGIPFPGGPEIEKLAMKGTKLLDLPYSVKGMDTAFSGILTAALQYLKTGQAIEDISYSIQETAFAMLVEVLERALYVSGKDEILMAGGVALNRRLRDMVTNMAREAGIRSYLTDREYCMDNGIMIAQAALLMYKSGVRMSVEETAVNPRFRIDEVDAPWITDASRKDYGKAGAESRIEEVSFHGRPAIRKVRISKSYRNSDLDKKIRYERMRNEFTILRKLKEAGVNSPVVYDFDPFSMSITMQKIPGRMMSAELNEGRTDFLNELGIMIAKMHRAGIAHGDLTVNNIIVNDSVFIIDPSMGKVNAEIEDMAVDIYALEDSIKGLGLDSGSVIGQMLKSYRNNFNLADDVLETVSAIRRRHRYVEGHHHHHH”: the “soluble on expression in E. coli” value was “not soluble”.

On to “MGSDKIHHHHHHMTTTDTRPSPSPLQQDYQRFLLLGSRRAPYTLHVHETGYRSGTINTDALGLRYSHCAGKRFSAAEHGGASRINLLVGGSTALGIGASSDEHTVASHLSMLTGEVWLSLAGCGLNATQELMMFLTHQHRLGQLGHVVVLSGLNSLAHEALCEVLAGTNDPQHAKAYQAFLNSFSEGMQPCAPPRRQSLWRRIGQALTPPVAAPPVSWPLSPPEKRLARAADNIGRTLRQWDRLLADSHATLTFILQPLLPWCRDTLPAGEQAMLTALQQQPANFDRLLEGAFDRQLHSAFFRRIKSQADPVPCYDMNCMLDSSPVFGADLFIDRLHLNDLGNNALAKVITAKLGLAQEKHAQRKVTPIKLV”, for which the “soluble on expression in E. coli” value is reported as “not soluble”.
